According to patent US20190284262A1:

Legend:
[1] = biological target: HLA-A2 on MAC-1 and MAC-2A cells (Homo sapiens), A*02:0; assay: flow cytometry on MAC-1 cells, isotype control of BB7
[2] = biological target: HLA-A2 on MAC-1 and MAC-2A cells (Homo sapiens), A*02:0; assay: flow cytometry on MAC-2A cells, isotype control of BB7
[3] = biological target: HLA-A2 on MAC-1 and MAC-2A cells (Homo sapiens), A*02:0; assay: flow cytometry on MAC-1 cells, HLA-A2 staining; isotype control 93.6
[4] = biological target: 017-mut8 peptide (…)/HLA-A*02:01 complex on T2 cells (human); assay: flow cytometry, HLA-A2 staining of T2 pulsed with peptide A8 (T2 stabilisation)
[5] = biological target: 017-mut5 peptide (…)/HLA-A*02:01 complex on T2 cells (human); assay: flow cytometry, HLA-A2 staining of T2 pulsed with peptide A5 (T2 stabilisation)
[6] = biological target: HLA-A*02:01 on T2 cells alone (no peptide added) (human); assay: flow cytometry, HLA-A2 staining of T2 without peptide
[7] = biological target: 017-mut7 peptide (…)/HLA-A*02:01 complex on T2 cells (human); assay: flow cytometry, HLA-A2 staining of T2 pulsed with peptide A7 (T2 stabilisation)
[8] = biological target: 017-mut2 peptide (…)/HLA-A*02:01 complex on T2 cells (human); assay: flow cytometry, HLA-A2 staining of T2 pulsed with peptide A2 (T2 stabilisation)
[9] = biological target: 017-mut9 peptide (…)/HLA-A*02:01 complex on T2 cells (human); assay: flow cytometry, HLA-A2 staining of T2 pulsed with peptide A9 (T2 stabilisation)
[10] = biological target: 017-mut1 peptide (…)/HLA-A*02:01 complex on T2 cells (human); assay: flow cytometry, HLA-A2 staining of T2 pulsed with peptide A1 (T2 stabilisation)
[11] = biological target: 017-mut3 peptide (…)/HLA-A*02:01 complex on T2 cells (human); assay: flow cytometry, HLA-A2 staining of T2 pulsed with peptide A3 (T2 stabilisation)
[12] = biological target: HLA-A2 on MAC-1 and MAC-2A cells (Homo sapiens), A*02:0; assay: flow cytometry on MAC-2A cells, HLA-A2 staining; isotype control 86.2
[13] = biological target: Foxp3-7 peptide/HLA-A*02:01 complex on the cell surface (human); assay: flow cytometry, HLA-A2 staining of T2 pulsed with the wild type Foxp3-7 peptide (T2 stabilisation)
[14] = biological target: T2+FoxP7-G10 (Homo sapiens), A*02:0; assay: flow cytometry, HLA-A2 staining of T2 pulsed with peptide G10 (T2 stabilisation)

Substance | Median:FITC-A [1] | Median:FITC-A [2] | Median:FITC-A [3] | Median:FITC-A [4] | Median:FITC-A [5] | Median:FITC-A [6] | Median:FITC-A [7] | Median:FITC-A [8] | Median:FITC-A [9] | Median:FITC-A [10] | Median:FITC-A [11] | Median:FITC-A [12] | Median:FITC-A [13] | Median:FITC-A [14]
mIso (antibody) | 93.6 | 86.2 |  |  |  |  |  |  |  |  |  |  |  | 
BB7 (antibody) |  |  | 35000 | 16500 | 10400 | 6940 | 18600 | 11200 | 10400 | 29600 | 35100 | 44000 | 18000 | 34100
